Reference: article PMC9520691 (ACS Omega, 2022)
Residue numbers refer to the chain shown, from its start. In names and notes the source's numbering stands. Several values for one entry are separate records, joined by “and”; a condition that tells them apart may be missing. Equal entries are not always repeated.

B1: full length ODC wildtype (enzyme, human, UniProt P11926 1-461, looked up)
chain: MNNFGNEEFDCHFLDEGFTAKDILDQKINEVSSSDDKDAFYVADLGDILKKHLRWLKALPRVTPFYAVKCNDSKAIVKTLAATGTGFDCASKTEIQLVQSLGVPPERIIYANPCKQVSQIKYAANNGVQMMTFDSEVELMKVARAHPKAKLVLRIATDDSKAVCRLSVKFGATLRTSRLLLERAKELNIDVVGVSFHVGSGCTDPETFVQAISDARCVFDMGAEVGFSMYLLDIGGGFPGSEDVKLKFEEITGVINPALDKYFPSDSGVRIIAEPGRYYVASAFTLAVNIIAKKIVLKEQTGSDDEDESSEQTFMYYVNDGVYGSFNCILYDHAHVKPLLQKRPKPDEKYYSSSIWGPTCDGLDRIVERCDLPEMHVGDWMLFENMGAYTVAAASTFNGFQRPTIYYVMSGPAWQLMQQFQNPDFPPEVEEQDASTLPVSCAWESGMKRHRAACASASINV
B2: full length ODC G84R (enzyme, human, UniProt P11926 1-461, looked up)
chain: B1 chain with G84R

Target: the molecule itself
Assay: AUC

Protein | stoichiometry N
B1 | 2
B2 | 2 and 3
